Measured values as given in article PMC5496502 (Chemical Science, 2015).

Target: MET-Fc: extracellular MET domain fused with human IgG1-Fc (human, UniProt P08581 25-932)
Assay: AlphaScreen or HTRF

Chain of MET-Fc: extracellular MET domain fused with human IgG1-Fc (P08581 25-932): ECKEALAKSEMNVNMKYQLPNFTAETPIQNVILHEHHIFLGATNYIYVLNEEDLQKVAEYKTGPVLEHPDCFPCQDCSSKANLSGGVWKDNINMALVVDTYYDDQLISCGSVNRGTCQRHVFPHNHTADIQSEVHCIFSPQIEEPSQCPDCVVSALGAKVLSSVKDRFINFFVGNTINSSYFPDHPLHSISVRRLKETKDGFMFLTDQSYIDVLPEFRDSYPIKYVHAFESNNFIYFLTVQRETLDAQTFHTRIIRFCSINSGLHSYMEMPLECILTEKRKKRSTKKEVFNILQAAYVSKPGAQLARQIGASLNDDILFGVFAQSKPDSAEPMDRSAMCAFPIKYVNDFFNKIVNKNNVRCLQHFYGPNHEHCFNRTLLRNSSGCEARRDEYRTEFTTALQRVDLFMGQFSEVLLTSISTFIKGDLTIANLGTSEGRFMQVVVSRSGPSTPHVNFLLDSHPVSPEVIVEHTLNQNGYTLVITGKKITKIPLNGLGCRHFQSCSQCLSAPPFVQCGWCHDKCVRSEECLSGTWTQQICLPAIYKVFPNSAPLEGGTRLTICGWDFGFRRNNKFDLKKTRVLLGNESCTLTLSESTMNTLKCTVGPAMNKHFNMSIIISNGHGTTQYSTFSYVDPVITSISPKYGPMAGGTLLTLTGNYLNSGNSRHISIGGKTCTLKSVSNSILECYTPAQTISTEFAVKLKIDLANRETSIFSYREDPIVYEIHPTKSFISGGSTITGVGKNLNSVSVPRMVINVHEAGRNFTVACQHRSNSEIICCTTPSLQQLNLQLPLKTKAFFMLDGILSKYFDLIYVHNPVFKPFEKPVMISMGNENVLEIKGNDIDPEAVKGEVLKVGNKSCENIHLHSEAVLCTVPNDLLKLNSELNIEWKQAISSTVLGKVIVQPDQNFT

Kd: ~16 nM
B1: K1B: synthetic K1 domain of HGF/SF (residues 125-209) with C-terminal Gly-Gly-Lys(biotin) (domain or fragment)
chain: IRNCIIGKGRSYKGTVSITKSGIKCQPWSSMIPHEHSFLPSSYRGKDLQENYCRNPRGEEGGPWCFTSNPEVRYEVCDIPQCSEVGGK
modifications: biotin on the side chain of the added C-terminal lysine; three disulfide bonds
